US20250084155A1 (University of Texas, published 2025)

How the values were obtained:
[1] = biological target: T1, HSP70 (human HSP70; the antigen of the binning, humanization and variant binding assays) (human, UniProt P0DMV8 1-641, limits assumed); assay: BLI, anti-human Fc capture, steady state
T1 construct: also called hu HSP70
Description: (§1) Further kinetics assays were conducted for select antibody variants. Assays were performed as follows. Antibody variants were immobilized using anti-human Fc onto the surface of a series of biosensors. Antigen was passed over the surface to generate a binding response. Binding data for the antibody: antigen interactions were collected at 25° C. on the biosensors. A dilution series of the antigen was used in the association step, in order to fit results globally and get the best values for ka, kd, and KD. The response data for the binding of antigen to the surface immobilized antibody were fitted to a 1:1 binding model.

[2] = biological target: T1, HSP70 (human HSP70; the antigen of the …); assay: BLI, anti-human Fc capture, antigen 100 nM
Outline: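 Antibody variants captured on anti-human Fc biosensors at […]; antigen at 100 nM flowed over, 25° C. Captured antigen recorded at 610 s (start of dissociation) and 1495 s (end of dissociation), giving % dissociation.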

[3] = biological target: T1, HSP70 (human HSP70; the antigen of the …); assay: BLI, anti-human Fc capture, antigen dilution series, 1:1 fit
Description: as §1

[4] = biological target: T1, HSP70 (human HSP70; the antigen of the …); assay: BLI, antibody on sensor
Description: Humanized variants were characterized for binding using biolayer interferometry (BLI). Chimeric antibodies including the murine 77A antigen binding region and human Fe regions were also tested. Antibodies and reagents were diluted out onto microwell plates and loaded into the instrument. Diluted antibodies were first immobilized onto dip-and-read sensors, and then measurements for baselines were acquired. Subsequently, the sensors were dipped into wells containing the antigen in solution, or buffer alone. The change in number of molecules bound to the sensor was quantified by measurement of the shift in the interference pattern of light during each step of the protocol. Mathematical modeling was performed based on those values and the concentrations of reagents used in the assay and used to calculate kinetics values.

T1 sequence (P0DMV8 whole entry, change not shown): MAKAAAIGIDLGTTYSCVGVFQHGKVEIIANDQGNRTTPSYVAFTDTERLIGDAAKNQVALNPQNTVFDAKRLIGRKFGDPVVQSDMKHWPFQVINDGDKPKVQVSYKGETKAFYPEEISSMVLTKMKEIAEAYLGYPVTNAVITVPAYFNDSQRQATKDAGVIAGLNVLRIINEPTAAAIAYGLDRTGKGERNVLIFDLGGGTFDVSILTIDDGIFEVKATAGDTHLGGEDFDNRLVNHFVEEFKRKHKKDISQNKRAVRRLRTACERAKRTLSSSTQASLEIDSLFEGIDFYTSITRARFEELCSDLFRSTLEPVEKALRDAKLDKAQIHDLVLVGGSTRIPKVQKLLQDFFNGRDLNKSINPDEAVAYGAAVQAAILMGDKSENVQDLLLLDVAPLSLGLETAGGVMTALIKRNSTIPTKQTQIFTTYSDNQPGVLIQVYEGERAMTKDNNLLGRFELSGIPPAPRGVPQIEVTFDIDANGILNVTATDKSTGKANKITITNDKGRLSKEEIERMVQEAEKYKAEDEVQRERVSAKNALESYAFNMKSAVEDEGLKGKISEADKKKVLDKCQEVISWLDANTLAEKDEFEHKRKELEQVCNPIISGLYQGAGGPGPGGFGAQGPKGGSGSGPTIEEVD

KD Steady State [1] [nM] | % Diss [2] [%] | Kd [3] [nM] | koff [3] [s⁻¹] | kon [3] [M⁻¹ s⁻¹] | Kd [4] [nM] | koff [4] [s⁻¹] | kon [4] [M⁻¹ s⁻¹] | Binder
0.032 | 3.88 | 0.69 | 6.11e-05 | 88500 |  |  |  | h77A-1.1 (antibody, V domains shown, captured by anti-human Fc) VH: QIQLVQSGAEVKKPGASVKVSCKASGYTFTKYGMNWVRQAPGQGLEWMGWINTYTGEPTYADDFKGRFTFTTDTSTSTAYMELRSLRSDDTAVYFCARYDHAMDYWGQGTLVTVSS VL: EIVLTQSPDSLAVSLGERATINCKSSQSLLNSGTRKNYLAWYQQKAGQSPKLLIYWTSTRESGVPDRFSGSGSGTDFTLTIDSLQAEDVAVYYCKQSYTLYTFGGGTKVEIK
 |  |  |  |  | 8.31 | 0.000302 | 36400 | h77A-22 (antibody, V domains shown) VH: QIQLVQSGPEVKKPGESVKVSCKASGYTFTNYGMNWVRQAPGKGLEWMGWINTYTGEPTYADDFKGRVTITRDTSASTAYMELSSLRSEDTAVYFCARYDHAMDYWGQGTSVTVSS VL: DIVMTQSPDSLSVSLGERATINCKSSQSLLNSGTRKNYLAWYQQKPGQPPRLLIYWTSTRESGVPDRFSGSGSGTDFTLTINTLQAEDVAVYYCKQSYTLYTFGQGTKLEIK
 |  |  |  |  | 10.5 | 0.00046 | 44000 | h77A-16 (antibody, V domains shown) VH: EVQLVESGGGLVKPGGSLRLSCKASGYTFTNYGMNWVRQAPGKGLKWVGWINTYTGEPTYADDFKGRFTFSRDDSKNTLYLQMNSLKTEDTAVYFCARYDHAMDYWGQGTSVTVSS VL: EIVLTQSPDSLAVSLGERATINCKSSQSLLNSGTRKNYLAWYQQKAGQSPKLLIYWTSTRESGVPDRFSGSGSGTDFTLTIDSLQAEDVAVYYCKQSYTLYTFGGGTKVEIK
 |  |  |  |  | 10.6 | 0.000503 | 47300 | h77A-25 (antibody, V domains shown) VH: QIQLVQSGPEVKKPGESVKVSCKASGYTFTNYGMNWVRQAPGKGLEWMGWINTYTGEPTYADDFKGRVTITRDTSASTAYMELSSLRSEDTAVYFCARYDHAMDYWGQGTSVTVSS VL: DIVMTQSPDSLAVSLGERATINCKSSQSLLNSGTRKNYLAWYQQKPGQSPKLLIYWTSTRESGVPDRFSGSGSGTDFTLTISSLQAEDVAVYYCKQSYTLYTFGGGTKLEIK
 |  |  |  |  | 8.96 | 0.000447 | 49900 | h77A-23 (antibody, V domains shown) VH: QIQLVQSGPEVKKPGESVKVSCKASGYTFTNYGMNWVRQAPGKGLEWMGWINTYTGEPTYADDFKGRVTITRDTSASTAYMELSSLRSEDTAVYFCARYDHAMDYWGQGTSVTVSS VL: DVVMTQSPDSLAVSLGERVTINCKSSQSLLNSGTRKNYLAWYQQKPGQSPKLLIYWTSTRESGVPDRFSGSGSGTDFTLTISSLQAEDVAVYYCKQSYTLYTFGQGTKLEIK
 |  |  |  |  | 8.85 | 0.000396 | 44700 | h77A-13 (antibody, V domains shown) VH: QVQLQQSGPEVKKPGASVKISCKTSGYTFTNYGMNWVRQAPGQGLEWMGWINTYTGEPTYADDFKGRVTMTTDTSTSTAYLELTGLMSDDTAVYFCARYDHAMDYWGQGTTVTVSS VL: DVVMTQSPDSLAVSLGERVTINCKSSQSLLNSGTRKNYLAWYQQKPGQSPKLLIYWTSTRESGVPDRFSGSGSGTDFTLTISSLQAEDVAVYYCKQSYTLYTFGQGTKLEIK
 |  |  |  |  | 10.8 | 0.000513 | 47600 | h77A-15 (antibody, V domains shown) VH: QVQLQQSGPEVKKPGASVKISCKTSGYTFTNYGMNWVRQAPGQGLEWMGWINTYTGEPTYADDFKGRVTMTTDTSTSTAYLELTGLMSDDTAVYFCARYDHAMDYWGQGTTVTVSS VL: DIVMTQSPDSLAVSLGERATINCKSSQSLLNSGTRKNYLAWYQQKPGQSPKLLIYWTSTRESGVPDRFSGSGSGTDFTLTISSLQAEDVAVYYCKQSYTLYTFGGGTKLEIK
 |  |  |  |  | 10 | 0.000446 | 44500 | h77A-12 (antibody, V domains shown) VH: QVQLQQSGPEVKKPGASVKISCKTSGYTFTNYGMNWVRQAPGQGLEWMGWINTYTGEPTYADDFKGRVTMTTDTSTSTAYLELTGLMSDDTAVYFCARYDHAMDYWGQGTTVTVSS VL: DIVMTQSPDSLSVSLGERATINCKSSQSLLNSGTRKNYLAWYQQKPGQPPRLLIYWTSTRESGVPDRFSGSGSGTDFTLTINTLQAEDVAVYYCKQSYTLYTFGQGTKLEIK
1.8 | 6.58 | 2.11 | 0.000114 | 54200 |  |  |  | h77A-1.6 (antibody, V domains shown, captured by anti-human Fc) VH: QIQLVQSGAEVKKPGASVKVSCKASGYTFTNYGMNWVRQAPGQGLEWMGWINTYTGEPTYADDFKGRFTFTTDTSTRTAYMELRSLRSDDTAVYFCARYDHAMDYWGQGTLVTVSS VL: EIVLTQSPDSLAVSLGERATINCKSSQSLLNSGTRKNYLAWYQQKAGQSPKLLIYWTSTRESGVPDRFSGSGSGTDFTLTIDSLQAEDVAVYYCKQSYTLYTFGGGTKVEIK
2.6 | 8.76 | 2.48 | 0.000145 | 58400 |  |  |  | h77A-1.10 (antibody, V domains shown, captured by anti-human Fc) VH: QIQLVQSGDEVKKPGASVKVSCKASGYTFTNYGMNWVRQAPGQGLEWMGWINTYTGEPTYADDFKGRFTFTTDTSTSTAYMELRSLRSDDTAVYFCARYDHAMDYWGQGTLVTVSS VL: EIVLTQSPDSLAVSLGERATINCKSSQSLLNSGTRKNYLAWYQQKAGQSPKLLIYWTSTRESGVPDRFSGSGSGTDFTLTIDSLQAEDVAVYYCKQSYTLYTFGGGTKVEIK
0.31 | 8.62 | 1.35 | 7.42e-05 | 54800 |  |  |  | h77A-1.8 (antibody, V domains shown, captured by anti-human Fc) VH: QIQLVQSGAEVKKPGASVKVSCKASGYTFTNYGMNWVRQAPGQGLEWMGWINTYTGEPTYADDFKGRFTFTTDTSTSTAYMELRSLRSDDTAVYFCARYDHAMDYWGQGTLVTVSS VL: EIVLTQSPDSLAVSLGERATIKCKSSQSLLNSGTRKNYLAWYQQKAGQSPKLLIYWTSTRESGVPDRFSGSGSGTDFTLTIDSLQAEDVAVYYCKQSYTLYTFGGGTKVEIK
 |  |  |  |  | 1.39 | 9.94e-05 | 71600 | chimeric 77A with a human IgG1 Fc domain (antibody, V domains shown, also called Chimera IgG1; IgG1 Chimera) VH: QIQLVQSGPELKKPGETVKISCKASGYTFTNYGMNWVKQAPGKGLKWMGWINTYTGEPTYADDFKGRFAFSLETSATTAYLQINNLKNEDTATYFCARYDHAMDYWGQGTSVTVSS VL: DIVMSQSPSSLAVSAGEKVTMSCKSSQSLLNSGTRKNYLAWYQQKPGQSPKLLIYWTSTRESGVPDRFTGSGSGTDFTLTINSVQAEDLAVYYCKQSYTLYTFGGGTKLEIK
 |  |  |  |  | 1.52 | 0.000112 | 73700 | chimeric 77A with a human IgG2 Fc domain (antibody, V domains shown, also called Chimera IgG2; IgG2 Chimera) VH: QIQLVQSGPELKKPGETVKISCKASGYTFTNYGMNWVKQAPGKGLKWMGWINTYTGEPTYADDFKGRFAFSLETSATTAYLQINNLKNEDTATYFCARYDHAMDYWGQGTSVTVSS VL: DIVMSQSPSSLAVSAGEKVTMSCKSSQSLLNSGTRKNYLAWYQQKPGQSPKLLIYWTSTRESGVPDRFTGSGSGTDFTLTINSVQAEDLAVYYCKQSYTLYTFGGGTKLEIK
 |  |  |  |  | 1.81 | 0.000129 | 71300 | chimeric 77A with a human IgG4 Fc domain (antibody, V domains shown, also called Chimera IgG4; IgG4 Chimera) VH: QIQLVQSGPELKKPGETVKISCKASGYTFTNYGMNWVKQAPGKGLKWMGWINTYTGEPTYADDFKGRFAFSLETSATTAYLQINNLKNEDTATYFCARYDHAMDYWGQGTSVTVSS VL: DIVMSQSPSSLAVSAGEKVTMSCKSSQSLLNSGTRKNYLAWYQQKPGQSPKLLIYWTSTRESGVPDRFTGSGSGTDFTLTINSVQAEDLAVYYCKQSYTLYTFGGGTKLEIK
 |  |  |  |  | 15 | 0.000616 | 41100 | h77A-14 (antibody, V domains shown) VH: QVQLQQSGPEVKKPGASVKISCKTSGYTFTNYGMNWVRQAPGQGLEWMGWINTYTGEPTYADDFKGRVTMTTDTSTSTAYLELTGLMSDDTAVYFCARYDHAMDYWGQGTTVTVSS VL: DIQMTQSPSSLSASVGDRVTITCKSSQSLLNSGTRKNYLAWYQQKPGKVPKLLIYWTSTRESGVPSRFSGSGSGTDFTLTISSLQPEDVATYYCKQSYTLYTFGGGTKLEIK
 |  |  |  |  | 9.26 | 0.000294 | 31800 | h77A-24 (antibody, V domains shown) VH: QIQLVQSGPEVKKPGESVKVSCKASGYTFTNYGMNWVRQAPGKGLEWMGWINTYTGEPTYADDFKGRVTITRDTSASTAYMELSSLRSEDTAVYFCARYDHAMDYWGQGTSVTVSS VL: DIQMTQSPSSLSASVGDRVTITCKSSQSLLNSGTRKNYLAWYQQKPGKVPKLLIYWTSTRESGVPSRFSGSGSGTDFTLTISSLQPEDVATYYCKQSYTLYTFGGGTKLEIK
